# According to the nanobody polyreactivity screen of Harvey et al. (2022):
# Experiment: yeast display, Sf9 membrane polyspecificity reagent, FACS + sequencing; frameworks hold sequencing errors
# Summary of the method: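 After 36–48 hours of galactose induction, yeast (Saccharomyces cerevisiae BJ5465) displaying a synthetic nanobody library were stained at 4 °C for 1 hour with 10% biotinylated, detergent-solubilized Sf9 membrane reagent. Streptavidin microbeads enriched the stained cells before FACS sorting into low and high (top ~1%) gates on anti-HA and streptavidin fluorescence. Each clone's polyreactivity label reflects its gate of origin.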
row,Sequence,polyreactivity (PSR sort gate)
1,QVQLVESGGGLVQAGGSLRLSCAASGITFNRYVMGWYRQAPGKERELVAANSRTGGSTYYADSVKGRFTISRDTGKNTVYLQMNILKPEDTAVYYCAAATSPGIYDYWGQGTQVTVSS,high polyreactivity
2,QVQLVESGGGLVQAGGSLRLSCAASGITFNWYAMGWYRQAPGKERELVAAISGSGGRTYYADSVKGRFTISRDYPKNTVYLQMTSLKPEDTAVYYCNKVPYYAGQNYVYWGQGTQVTVSS,high polyreactivity
3,QVQLVESGGGLVQAGGSLRLSCAASGITFNYAMGWYRQAPGKERELVAAISRRGGSTYYADSVKGRFTISRDNAKNTVYLQMNSLKPEDTAVYYCNTTVWGSYYYWGQGTQVTVSS,high polyreactivity
4,QVQLVESGGGLVQAGGSLRLSCAASGITFPENDMGWYIKAPGKEREFDADITSSGGNTYYADSVKGRFTISRDNAKNTVYLHMNSLKPEDSAVYYCNADDGYFYVYQGWYDEMDYWGQGTQVTVSS,high polyreactivity
5,QVQLVESGGGLVQAGGSLRLSCAASGITFPGYAMGWYRQAPGKERELVAAISDSGSSTYYADSVKGRFTISRDNAKNTVYLQMNSLKPEDTAVYYCAAVSGFYDQYDYWGQGTQVTVSS,low polyreactivity
6,QVQLVESGGGLVQAGGSLRLSCAASGITFPGYAMGWYRQAPGKERELVAAISTSGGSTYYADSVKGRFTISRDNAKNTVYLQMNSLTPDDTAVYYCNARLVYYSYEEMDYWGQGTQVTVSS,low polyreactivity
7,QVQLVESGGGLVQAGGSLRLSCAASGITFPINAMGWYRQAPGKEREFVATISFSGASTYYADSVKGRFTISRDNAKNTVYLQMNSLKPEDTAVYYCAADLSLSTGGRAFPTYGYWGQGTQVTVSS,high polyreactivity
8,QVQLVESGGGLVQAGGSLRLSCAASGITFPLYAMGWYRKAPGKERELVATISGRGGSTYYADYVKGRFTISRDNAKNTVYLQMNSLIPEDTAVYYCNADFRSPYFLLSWYHSGDYWGLGTQVTVSS,low polyreactivity
9,QVQLVESGGGLVQAGGSLRLSCAASGITFPRYAMGWYRLAPGKERELVATITRSGGGTYYADSVKGRFTISRDNAKNTVYLQMKSLKPEDTAVYYCAAGALQRGVYGYGYWGQGTEVTVSS,high polyreactivity
10,QVQLVESGGGLVQAGGSLRLSCAASGITFPYYAKGWYRQAPGKERELVAGISRSGGRTYYADSVKGRFTISRDNAKNTVYLQMNSLKPEDTAVYYCNARKNLLSVTFDYWGQGTQVTVSS,high polyreactivity
11,QVQLVESGGGLVQAGGSLRLSCAASGITFPYYALGWYRQAPGKERELVARISRGGRTNYADSVKGRFTISRDNAKNTVYLQMNSLKPEDTAVYYCNAGYTYYKYGYWGQGTQVTVSS,high polyreactivity
12,QVQLVESGGGLVQAGGSLRLSCAASGITFPYYAMGWSRQAPGKERELVAAISSSGGSSYYADSVKGRFTISRDNAKNTVYLQMNSLKPEDTAVYYCATRNTRFHLDYWGQGTQVTVSS,high polyreactivity
13,QVQLVESGGGLVQAGGSLRLSCAASGITFPYYAMGWYRQAPGKERELVAAISSSGGSTYYADSVKGRFTISRDNAKNTVYLQMNSLKPEDTAVYYCAAQRYINYDYWGQGTQVTVSS,high polyreactivity
14,QVQLVESGGGLVQAGGSLRLSCAASGITFPYYAMGWYRQAPGKERELVAAITRSGSSTYYADSVKGRFTISRDNAKNTVYLQMNSLKPEDTAVYYCAAKRGAGEDYWGQGTQVTVSS,high polyreactivity
15,QVQLVESGGGLVQAGGSLRLSCAASGITFPYYTMGWYRQAPGKERELVATIRNGGSTYYADSVKGRFTISRDNAKNTVYLQMNSMKPEDTAVYYCAAVPLWDYKFFYYLLYDYWGQGTQVTVSS,low polyreactivity
16,QVQLVESGGGLVQAGGSLRLSCAASGITFQANAMGWYRQAPGKERELVAAISSSDGSTYYADSVKGRFTISRDNAKNTVYVQMNSLKPEDTAVYYCAADGVVYGWPEYEYWGQGTQVTVSS,low polyreactivity
17,QVQLVESGGGLVQAGGSLRLSCAASGITFQDNAIGSNRQAPGKERELVAAISTGSTNYADSVKGRFTISRDNAKNTVYLQMKSLKPDDTAVYYCAALGQYQTVYSDGYDYYYWGQGTQVTVSS,low polyreactivity
18,QVQLVESGGGLVQAGGSLRLSCAASGITFQDYAMGWYRQAPGKERELVAAISKSGGSTYYADSVKGRFTISRDNAKNTVYLQMNSLKPEDTAVYYCAAYAQKRYYWGQGTQVTVSS,high polyreactivity
19,QVQLVESGGGLVQAGGSLRLSCAASGITFQNYAMGWYRQAPGKERELVAAITRSGGRTYYADSVKGRFTISRDNAMNTVYLQMNSLKPEDTAVYYCAVYGIGRPYWYDYWGQGTQVTVSS,high polyreactivity
20,QVQLVESGGGLVQAGGSLRLSCAASGITFQNYAMGWYRQAPGKERELVAGISYSGGSTYYADSVKGRFTISRDHAKNTVFLLMNSLKPEDTAVYDCAATRWYSYRRYYYWGQGTQVTVSS,high polyreactivity
21,QVQLVESGGGLVQAGGSLRLSCAASGITFQPYAMGWYRQAPGKEREFVAVISFRGGSTYYADSVKGRFTISRDNAKNTVYLQMNSLKPEDTAVYYCAALEYHGHTGGRVYYWVQGTQVTVSS,high polyreactivity
22,QVQLVESGGGLVQAGGSLRLSCAASGITFQRYAMGWYRQAPGKERELVAAISTNGGTTYYADSVKGRFTISRDNAKNTVYLQMNSLKPEDTAVYYCNAESGYVYYIRYNYWGQGTQVTVSS,high polyreactivity
23,QVQLVESGGGLVQAGGSLRLSCAASGITFRFYAMGWYRQAPGKERELVAAITSSGGSTYYADSVKGRFTISRDNAKNTVYLQMNSLKPEDTAVYYCAASYGAPYGYKRYYYWGQGTQVTVSS,high polyreactivity
24,QVQLVESGGGLVQAGGSLRLSCAASGITFRGNVMGWYRQAPGKERELVAAISGSSGRTYYADSVKGRFTISRDNAKNTVYLQMNSLKPEDTAVYYCAAYYGTKYDYWGQGTQVTVSS,high polyreactivity
25,QVQLVESGGGLVQAGGSLRLSCAASGITFRGYAMGWYRQAPGKERELVAAITWSGGSTYYADSVKGRFTISRDIAKNTVYLQMKSLKPEDTAVYYCAARGRRSFEYWGQGTHVTVSS,high polyreactivity
26,QVQLVESGGGLVQAGGSLRLSCAASGITFRHYDMGWYRQAPGKERELVAAITSRGGSTYYADSVKGRFTISRDNAKNTVYLQMNSLKPQDTAVYYCNKRLYYQRWPAAAREYWGQGTQVTVSS,high polyreactivity
27,QVQLVESGGGLVQAGGSLRLSCAASGITFRKYAMGWYRQAPGKERELVAGIRRGGSTYYADSVKGRFTISRDNAKNTVYLQMNSLKPEDTAVYYCATRARYKRIRYDYWGQGTQVTVSS,high polyreactivity
28,QVQLVESGGGLVQAGGSLRLSCAASGITFRNYAMGWYRPAPGKERELVADITTGGSTYADSVKGRFTISRDNAKNTVYLQMISLKPEDTAVYYCAARYFSYYILRRIYPVREDYWGQGTQVTVSS,low polyreactivity
29,QVQLVESGGGLVQAGGSLRLSCAASGITFRPYTMGWYRQAPGKERELVATINWSGGSTYYADSVKGRFTISRDNAKNTVYLQMNSLKPEDTAVYYCAVTWYVRRWYGYWGQGTQVTVSS,high polyreactivity
30,QVQLVESGGGLVQAGGSLRLSCAASGITFRRNAMGWYRQAPGKERELVAGITRGGTTKYADSVKGRFTISRDNAKNTVYLQMNSLKPEDTAVYYCNAVTRRHKYYYWGQGTQVTVSS,high polyreactivity
